Test results: US20090022714A1, “Combination methods of inhibiting tumor growth with a vascular endothelial growth factor receptor antagonist” (ImClone Systems, Inc., priority 2001, published 2009)

Assays:
KDR (VEGFR-2) [1] = biological target: T1, KDR (VEGFR-2) (Homo sapiens, UniProt P35968); assay: BIAcore analysis of soluble Fab; type: binding; design: the cDNA for KDR (VEGFR-2) extracellular domain is fused in-frame with the cDNA for human placental AP; made in house; host or cells: stably transfected NIH 3T3 cells, purified from supernatant on anti-AP antibody; conditions: mean±SE
Description: The binding kinetics of soluble Fab proteins to KDR (VEGFR-2) were measured by surface plasmon resonance using a BIAcore biosensor (Pharmacia Biosensor). KDR (VEGFR-2)-AP fusion protein was immobilized onto a sensor chip and soluble Fab proteins were injected at concentrations ranging from 1.5 nM to 100 nM. Sensorgrams were obtained at each concentration and were evaluated using a program, BIA Evaluation 2.0, to determine the rate constants kon and koff Kd was calculated from the ratio of rate constants koff/kon.
Target sequence in this assay (P35968 20-764 limits assumed): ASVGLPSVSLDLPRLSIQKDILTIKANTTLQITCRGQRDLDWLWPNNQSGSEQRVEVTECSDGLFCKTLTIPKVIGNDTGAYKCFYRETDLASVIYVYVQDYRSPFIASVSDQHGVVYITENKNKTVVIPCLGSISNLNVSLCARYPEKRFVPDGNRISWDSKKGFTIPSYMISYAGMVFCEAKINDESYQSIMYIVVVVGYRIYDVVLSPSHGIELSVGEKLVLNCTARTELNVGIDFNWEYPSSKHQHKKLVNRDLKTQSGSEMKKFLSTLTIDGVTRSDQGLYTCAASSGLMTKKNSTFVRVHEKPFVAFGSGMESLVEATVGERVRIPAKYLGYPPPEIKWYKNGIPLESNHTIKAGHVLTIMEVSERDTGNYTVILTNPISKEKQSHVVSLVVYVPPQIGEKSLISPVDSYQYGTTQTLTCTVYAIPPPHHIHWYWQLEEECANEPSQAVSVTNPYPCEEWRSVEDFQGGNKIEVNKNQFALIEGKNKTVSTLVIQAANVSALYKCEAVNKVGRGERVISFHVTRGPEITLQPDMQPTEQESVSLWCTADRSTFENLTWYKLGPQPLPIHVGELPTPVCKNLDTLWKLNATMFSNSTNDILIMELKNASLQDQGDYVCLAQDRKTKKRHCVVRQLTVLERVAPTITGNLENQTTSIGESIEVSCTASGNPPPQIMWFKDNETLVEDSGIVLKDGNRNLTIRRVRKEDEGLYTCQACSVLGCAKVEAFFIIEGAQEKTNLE

KDR (VEGFR-2) [2] = biological target: T1, KDR (VEGFR-2); assay: Direct binding assay of Fab to KDR; design: the cDNA for KDR (VEGFR-2) extracellular domain is fused in-frame with the cDNA for human placental AP; made in house; host or cells: stably transfected NIH 3T3 cells, purified from supernatant on anti-AP antibody
Description: In a direct binding assay, various amounts of soluble Fab proteins were added to KDR (VEGFR-2)-coated 96-well Maxi-sorp microtiter plates and incubated at RT for 1 h, after which the plates were washed 3 times with PBST. The plates were then incubated at RT for 1 h with 100 Φl of a rabbit anti-human Fab antibody-HRP conjugate (Jackson ImmunoResearch Laboratory Inc., West Grove, Pa.). The plates were washed and developed following the procedure described above for the phage ELISA. […] Absorbance at 405 nm was measured to quantify the bound KDR (VEGFR-2)-AP molecules (8).
Target sequence in this assay (P35968 20-764 limits assumed): as above

[3] = test system: KDR (VEGFR-2), KDR (VEGFR-2)(1-3), KDR (VEGFR-2)(3); assay: Binding epitope mapping with KDR Ig-domain deletion variants; design: species or system human
KDR (VEGFR-2), KDR (VEGFR-2)(1-3), KDR (VEGFR-2)(3), sequence (P35968 224-327 limits assumed): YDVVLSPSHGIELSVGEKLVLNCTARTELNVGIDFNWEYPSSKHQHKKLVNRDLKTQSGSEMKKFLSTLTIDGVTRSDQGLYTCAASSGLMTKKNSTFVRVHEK
Description: The production of KDR (VEGFR-2) extracellular Ig-like domain deletion variants has been previously described (Lu et al. (2000)). In an epitope-mapping assay, full length KDR (VEGFR-2)-AP, Ap fusions of two KDR (VEGFR-2) Ig-domain deletion variants, and Flk-1-AP were first immobilized onto a 96-well plate (Nunc) using a rabbit anti-AP antibody (DAKO-immunoglobulins, Glostrup, Denmark) as the capture reagent. The plate was then incubated with various anti-KDR (VEGFR-2) Fab proteins at RT for 1 h, followed by incubation with a rabbit anti-human Fab antibody-HRP conjugate. The plate was washed and developed as described above.

HUVEC = assay: Anti-mitogenic assay, [3H]-TdR, HUVEC (chimeric IgG and scFv); type: cell-based, human; conditions: FIG. 24
Description: The effect of anti-KDR (VEGFR-2) antibodies on VEGF-stimulated mitogenesis of human endothelial cells was determined with a [^3H]-TdR DNA incorporation assay using HUVEC. […] After 18 hours of incubation, 0.25 μCi of [^3H]-TdR was added to each well and incubated for an additional 4 hours. DNA incorporated radioactivity was determined with a scintillation counter. The data shown in FIG. 24 are representative of at least three separate experiments.

[4] = biological target: T2, KDR (VEGFR-2) binding to VEGF (Homo sapiens, UniProt P35968); assay: Competitive VEGF binding assay, first assay (KDR-AP to immobilized VEGF165); conditions: FIG. 22
T2 construct: the cDNA for KDR (VEGFR-2) extracellular domain is fused in-frame with the cDNA for human placental AP; made in house; host or cells: stably transfected NIH 3T3 cells, purified from supernatant on anti-AP antibody
T2 sequence (P35968 20-764 limits assumed): as the sequence (P35968 20-764 limits assumed) above
Description: In the first assay, various amounts of antibodies were mixed with a fixed amount of KDR (VEGFR-2)-AP (50 ng) and incubated at room temperature for 1 h.

[5] = biological target: T3, immobilized KDR (VEGFR-2) receptor (Homo sapiens, UniProt P35968); assay: Competitive VEGF binding assay, second assay (radiolabeled VEGF165 to immobilized KDR); conditions: FIG. 23
T3 construct: the cDNA for KDR (VEGFR-2) extracellular domain is fused in-frame with the cDNA for human placental AP; human placental alkaline phosphatase (AP), inferred for these assays; made in house; host or cells: NIH 3T3 (inferred: the only KDR protein whose making is described)
T3 sequence (P35968 20-764 limits assumed): as above

KDR (VEGFR-2) [6] = biological target: T1, KDR (VEGFR-2); assay: KDR phosphorylation assay in HUVEC (chimeric IgG); type: cell-based; design: endogenous in cells; host or cells: HUVEC, early passage
Description: (§1) Subconfluent HUVEC cells were grown in growth factor depleted EBM-2 medium for 24 to 48 h prior to experimentation. […] The cells were then lysed in lysis buffer ([…], 150 mM NaCl, 1% NP-40, 2 mM EDTA, 0.25% sodium deoxycholate, 1 mM PMSF, 1 μg/ml leupeptin, 1 μg/ml pepstatin, 10 μg/ml aprotinin, pH 7.5) and the cell lysate used for both the KDR (VEGFR-2) and MAP kinase phosphorylation assays. The KDR (VEGFR-2) receptor was immunoprecipitated from the cell lysates with Protein A Sepharose beads (Santa Cruz Biotechnology, Inc., CA) coupled to an anti-KDR (VEGFR-2) antibody, Mab 4.13 (ImClone Systems). Proteins were resolved with SDS-PAGE and subjected to Western blot analysis. To detect KDR (VEGFR-2) phosphorylation, blots were probed with an antiphosphotyrosine Mab, PY20 (ICN Biomedicals, Inc. Aurora, Ohio). For the MAP kinase activity assay, cell lysates were resolved with SDS-PAGE followed by Western blot analysis using a phospho-specific MAP kinase antibody (New England BioLabs, Beverly, Mass.). All signals were detected using ECL (Amersham, Arlington Heights, Ill.). In both assays, the blots were reprobed with a polyclonal anti-KDR (VEGFR-2) antibody (ImClone Systems) to assure that equal amount of protein was loaded in each lane of SDS-PAGE gels.
Target sequence in this assay (P35968 20-1356): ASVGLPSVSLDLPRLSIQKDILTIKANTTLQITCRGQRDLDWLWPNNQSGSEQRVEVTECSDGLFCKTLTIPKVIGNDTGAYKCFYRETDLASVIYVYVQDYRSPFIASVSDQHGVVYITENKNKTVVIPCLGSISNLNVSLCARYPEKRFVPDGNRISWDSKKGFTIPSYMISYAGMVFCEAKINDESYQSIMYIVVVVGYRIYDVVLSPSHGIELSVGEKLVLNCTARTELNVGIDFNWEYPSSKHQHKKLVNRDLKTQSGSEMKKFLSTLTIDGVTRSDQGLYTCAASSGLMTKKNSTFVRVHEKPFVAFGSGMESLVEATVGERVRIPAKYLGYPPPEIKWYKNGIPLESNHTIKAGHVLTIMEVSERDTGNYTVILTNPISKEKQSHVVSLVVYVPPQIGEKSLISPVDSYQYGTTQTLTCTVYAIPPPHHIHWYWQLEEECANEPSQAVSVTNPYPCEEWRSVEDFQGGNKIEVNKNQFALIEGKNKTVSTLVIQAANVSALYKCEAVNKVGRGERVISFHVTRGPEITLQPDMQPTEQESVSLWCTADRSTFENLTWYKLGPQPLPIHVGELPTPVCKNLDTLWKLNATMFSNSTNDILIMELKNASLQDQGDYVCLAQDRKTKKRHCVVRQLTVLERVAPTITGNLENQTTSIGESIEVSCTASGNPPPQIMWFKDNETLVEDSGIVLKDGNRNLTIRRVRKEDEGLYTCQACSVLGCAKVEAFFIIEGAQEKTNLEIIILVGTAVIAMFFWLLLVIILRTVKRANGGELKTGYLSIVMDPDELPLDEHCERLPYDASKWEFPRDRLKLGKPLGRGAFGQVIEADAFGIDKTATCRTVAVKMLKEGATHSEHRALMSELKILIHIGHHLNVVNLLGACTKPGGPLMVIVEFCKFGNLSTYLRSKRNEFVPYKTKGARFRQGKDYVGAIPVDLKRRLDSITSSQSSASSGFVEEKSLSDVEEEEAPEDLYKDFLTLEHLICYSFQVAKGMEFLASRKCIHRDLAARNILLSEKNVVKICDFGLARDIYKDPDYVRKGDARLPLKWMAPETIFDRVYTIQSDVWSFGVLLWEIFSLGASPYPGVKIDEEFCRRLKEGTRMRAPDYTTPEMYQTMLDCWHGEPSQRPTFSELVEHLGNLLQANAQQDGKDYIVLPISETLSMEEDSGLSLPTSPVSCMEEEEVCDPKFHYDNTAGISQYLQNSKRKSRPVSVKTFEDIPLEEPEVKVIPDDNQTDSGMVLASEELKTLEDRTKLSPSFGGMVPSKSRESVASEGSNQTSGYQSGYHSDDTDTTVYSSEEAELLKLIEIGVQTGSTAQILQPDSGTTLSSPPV

KDR (VEGFR-2) [7] = biological target: T1, KDR (VEGFR-2); assay: Quantitative KDR binding assay (chimeric IgG and scFv); design: the cDNA for KDR (VEGFR-2) extracellular domain is fused in-frame with the cDNA for human placental AP; made in house; host or cells: stably transfected NIH 3T3 cells, purified from supernatant on anti-AP antibody; conditions: ELISA, FIG. 20
Description: Various amounts of antibodies were added to KDR (VEGFR-2)-coated 96-well Maxi-sorp microtiter plates (Nunc. Danmark) and incubated at room temperature for 1 h, after which the plates were washed 3 times with PBS containing 0.1% Tween-20. The plates were then incubated at RT for 1 h with 100 ul of mouse anti-E tag antibody-HRP conjugate (Pharmacia Biotech) for the scFv, or rabbit anti-human IgG Fc specific antibody-HRP conjugate (Cappel, Organon Teknika Corp.) for the chimeric IgG. The plates were washed 5 times, TMB peroxidase substrate (KPL, Gaithersburg, Md.) added, and the OD at 450 nm read using a microplate reader (Molecular Device, Sunnyvale, Calif.).
Target sequence in this assay (P35968 20-764 limits assumed): as the sequence (P35968 20-764 limits assumed) above

KDR (VEGFR-2) [8] = biological target: T1, KDR (VEGFR-2); assay: BIAcore analysis of p1C11 scFv, c-p1C11 and VEGF; type: binding; design: the cDNA for KDR (VEGFR-2) extracellular domain is fused in-frame with the cDNA for human placental AP; made in house; host or cells: stably transfected NIH 3T3 cells, purified from supernatant on anti-AP antibody; conditions: BIAcore, Table 2
Description: The binding kinetics of antibodies to KDR (VEGFR-2) were measured using BIAcore biosensor (Pharmacia Biosensor). […] Sensorgrams were obtained at each concentration and were evaluated using a program, BIA Evaluation 2.0, to determine the rate constants kon and koff. Kd was calculated as the ratio of rate constants koff/kon.
Target sequence in this assay (P35968 20-764 limits assumed): as above

p44/p42 MAP kinases = assay: MAP kinase phosphorylation assay in HUVEC (chimeric IgG); type: cell-based, human
Description: as §1

[9] = test system: KDR (VEGFR-2)-expressing HUVEC; assay: FACS analysis of c-p1C11 on HUVEC; type: binding, human; conditions: 5 μg/ml
Description: Early passage HUVEC cells were grown in growth factor-depleted EBM-2 medium overnight to induce the expression of KDR (VEGFR-2). The cells were harvested and washed three times with PBS, incubated with c-p1C11 IgG (5 μg/ml) for 1 h at 4° C., followed by incubation with a FITC labeled rabbit anti-human Fc antibody (Capper, Organon Teknika Corp., West Chester, Pa.) for an additional 60 min. The cells were washed and analyzed by a flow cytometer (Model EPICS®, Coulter Corp., Edison, N.J.).

B1: D2H2: human anti-KDR (VEGFR-2) VEGF-blocking Fab clone (antibody, V domains shown)
VH: EVQLVQSGGGLVKPGGSLRLSCAASGFTFSSYSMNWVRQAPGKGLEWVSSISSSSSYIYYADSVKGRFTISRDNAKDSLYLQMNSLRAEDTAVYYCARVTDAFDIWGQGTMVTVSS
VL: DIQLTQSPSSVSASVGDRVTITCRASQGISSRLAWYQQKPGKAPKLLIYAASSLQTGVPSRFSGSGSGTDFTLTISSLQPEDFATYYCQQANRFPPTFGPGTKVDIK
KDR (VEGFR-2) [1]
  koff: 4.87 ± 0.18 10^−4 S^−1
  kon: 12.4 ± 2.9 10^4 M^−1S^−1
KDR (VEGFR-2) [2]
  efficiency of binding to KDR: more efficient binders
[3]
  location of binding epitope(s): broader binding epitope(s) within KDR (VEGFR-2) Ig domains 1 to 3

B2: c-p1C11: chimeric p1C11 IgG1: p1C11 variable domains with human κ and γ1 constant regions (antibody, V domains shown)
VH: QVKLQQSGAELVGSGASVKLSCTTSGFNIKDFYMHWVKQRPEQGLEWIGWIDPENGDSDYAPKFQGKATMTADSSSNTAYLQLSSLTSEDTAVYYCNAYYGDYEGYWGQGTTVTVSS
VL: DIELTQSPAIMSASPGEKVTITCSASSSVSYMHWFQQKPGTSPKLWIYSTSNLASGVPARFSGSGSGTSYSLTISRMEAEDAATYYCQQRSSYPFTFGSGTKLEIK
HUVEC
  inhibitory effect on VEGF-stimulated mitogenesis of HUVEC: effectively inhibit mitogenesis of HUVEC stimulated by VEGF
[4]
  blocking of KDR binding to immobilized VEGF: block KDR (VEGFR-2) receptor from binding to immobilized VEGF in a dose-dependent manner
[5]
  competition with 125I labeled VEGF for binding to immobilized KDR: efficiently compete
KDR (VEGFR-2) [6]; VEGF165 20 ng/ml
  inhibition of VEGF-stimulated phosphorylation (activation) of KDR receptor: effectively inhibits
KDR (VEGFR-2) [6]; without VEGF
  effect of antibody alone on activity of KDR receptor and p44/p42 MAP kinases: Neither c-p1C11, nor C225 alone has any effects
KDR (VEGFR-2) [7]
  direct binding to immobilized KDR: binds more efficiently to immobilized KDR (VEGFR-2) than the parent scFv
KDR (VEGFR-2) [7]; listed as C-p1C11
  direct binding to immobilized KDR: bind more efficiently to immobilized KDR (VEGFR-2) receptor than the parent scFv
KDR (VEGFR-2) [8]
  koff: 0.52 10^−4 s^−1
  kon: 0.63 10^5 M^−1s^−1
p44/p42 MAP kinases; FGF 10 ng/ml, not shown
  inhibition of FGF-stimulated activation of p44/p42 MAP kinases: does not inhibit
p44/p42 MAP kinases; VEGF165 20 ng/ml
  inhibition of VEGF-stimulated activation of p44/p42 MAP kinases: effectively inhibits
[9]
  binding to KDR expressed on early passage HUVEC: binds specifically to KDR (VEGFR-2) expressed on early passage HUVEC
